Experimental findings from PMC11398526 are described below.

For assay [1], the target named is steroid receptor coactivator 3 (SRC3), full-length, Strep II tagged (human) (UniProt Q9Y6Q9). The assay can be described thus: SEC-MALS.
The target of assay [2] is progesterone receptor isoform A (PR-A), full-length, Strep II tagged (human) (UniProt P06401). The assay can be described thus: SEC-MALS. Background: In gel filtration, larger molecules generally elute earlier.
Sequence of progesterone receptor isoform A (PR-A), full-length, Strep II tagged (human) (P06401 165-933): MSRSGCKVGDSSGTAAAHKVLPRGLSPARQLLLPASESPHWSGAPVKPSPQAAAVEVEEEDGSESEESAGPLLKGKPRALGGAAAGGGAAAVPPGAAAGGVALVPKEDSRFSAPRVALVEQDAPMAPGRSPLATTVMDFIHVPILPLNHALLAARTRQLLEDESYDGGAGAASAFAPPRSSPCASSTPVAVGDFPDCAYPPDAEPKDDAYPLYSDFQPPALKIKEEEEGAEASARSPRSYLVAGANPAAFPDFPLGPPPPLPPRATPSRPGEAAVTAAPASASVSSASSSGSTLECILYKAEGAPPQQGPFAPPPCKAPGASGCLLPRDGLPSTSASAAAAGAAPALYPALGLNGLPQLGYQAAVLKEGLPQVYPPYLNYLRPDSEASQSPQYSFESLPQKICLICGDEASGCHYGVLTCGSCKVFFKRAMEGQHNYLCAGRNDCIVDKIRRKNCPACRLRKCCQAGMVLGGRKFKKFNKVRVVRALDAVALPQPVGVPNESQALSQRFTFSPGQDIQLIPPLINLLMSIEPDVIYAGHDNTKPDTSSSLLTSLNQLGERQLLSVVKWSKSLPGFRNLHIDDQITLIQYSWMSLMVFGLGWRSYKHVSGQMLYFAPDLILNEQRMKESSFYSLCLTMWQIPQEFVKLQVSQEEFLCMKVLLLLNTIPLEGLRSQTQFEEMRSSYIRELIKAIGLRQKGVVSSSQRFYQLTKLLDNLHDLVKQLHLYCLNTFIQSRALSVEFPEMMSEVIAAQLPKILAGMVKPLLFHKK

Sequence of steroid receptor coactivator 3 (SRC3), full-length, Strep II tagged (human) (Q9Y6Q9 whole entry, canonical isoform): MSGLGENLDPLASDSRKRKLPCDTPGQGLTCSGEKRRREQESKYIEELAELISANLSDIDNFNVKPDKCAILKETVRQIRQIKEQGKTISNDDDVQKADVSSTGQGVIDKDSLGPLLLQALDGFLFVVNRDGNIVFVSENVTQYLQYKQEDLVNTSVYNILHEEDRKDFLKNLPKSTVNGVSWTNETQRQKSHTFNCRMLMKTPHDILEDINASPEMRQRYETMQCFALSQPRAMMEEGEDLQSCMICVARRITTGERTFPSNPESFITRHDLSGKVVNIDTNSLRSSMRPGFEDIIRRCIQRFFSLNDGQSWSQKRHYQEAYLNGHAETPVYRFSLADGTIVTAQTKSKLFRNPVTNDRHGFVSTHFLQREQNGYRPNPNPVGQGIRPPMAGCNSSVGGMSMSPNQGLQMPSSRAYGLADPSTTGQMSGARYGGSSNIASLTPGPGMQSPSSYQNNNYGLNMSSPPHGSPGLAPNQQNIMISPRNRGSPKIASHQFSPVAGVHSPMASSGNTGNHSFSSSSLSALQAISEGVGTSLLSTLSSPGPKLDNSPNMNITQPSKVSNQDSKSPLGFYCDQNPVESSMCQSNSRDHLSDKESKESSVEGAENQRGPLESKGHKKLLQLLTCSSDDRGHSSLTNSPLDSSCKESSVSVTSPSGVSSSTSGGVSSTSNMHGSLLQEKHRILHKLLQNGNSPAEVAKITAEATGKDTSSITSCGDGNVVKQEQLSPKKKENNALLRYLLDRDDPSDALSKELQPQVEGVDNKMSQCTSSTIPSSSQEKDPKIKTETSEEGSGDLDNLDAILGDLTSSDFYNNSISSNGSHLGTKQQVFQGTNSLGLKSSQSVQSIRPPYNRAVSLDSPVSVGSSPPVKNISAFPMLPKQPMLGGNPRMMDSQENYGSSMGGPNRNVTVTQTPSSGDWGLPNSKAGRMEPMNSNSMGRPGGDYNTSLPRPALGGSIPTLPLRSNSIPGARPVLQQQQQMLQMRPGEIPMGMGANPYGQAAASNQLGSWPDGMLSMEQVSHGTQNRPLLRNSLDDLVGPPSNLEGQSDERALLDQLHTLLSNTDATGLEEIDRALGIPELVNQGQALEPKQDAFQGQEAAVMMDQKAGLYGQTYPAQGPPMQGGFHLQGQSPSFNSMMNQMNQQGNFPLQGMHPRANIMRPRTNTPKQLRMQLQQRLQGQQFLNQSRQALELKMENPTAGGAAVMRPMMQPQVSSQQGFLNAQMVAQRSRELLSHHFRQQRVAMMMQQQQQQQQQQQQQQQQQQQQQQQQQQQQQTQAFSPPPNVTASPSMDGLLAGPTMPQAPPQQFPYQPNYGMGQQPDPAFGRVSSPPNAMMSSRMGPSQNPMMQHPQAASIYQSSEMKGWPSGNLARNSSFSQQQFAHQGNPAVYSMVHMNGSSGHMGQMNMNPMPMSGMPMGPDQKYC

For “histone acetyltransferase p300, full-length, Strep II tagged, Q09472 1-2414”, the stoichiometry N (p300 per SRC3) in assay [1] amounted to 1. The stoichiometry N (p300 per PR-A) in assay [2] stood at 0.5.
